Results published in the supplement of paper PMC10065799, “High-throughput profiling of sequence recognition by tyrosine kinases and SH2 domains using bacterial peptide display” (eLife, 2023).

Each sequence was assayed on Fer (mouse) (assay: phosphorylation enrichment, bacterial display (enrichment ratio); higher = better substrate or ligand; peptides without Tyr show the background).
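Wherever SH2 binding enrichment of the phosphorylated peptide, bacterial display is given: peptide library displayed on the E. coli surface as eCPX fusions, selected cells deep-sequenced, score is each peptide's frequency after selection divided by its frequency in the input.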
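Wherever phosphorylation enrichment, bacterial display is given: 11-residue human phosphosite peptides and single-mutation variants displayed on the E. coli surface, counted by deep sequencing, each peptide's frequency after selection divided by its frequency in the unselected input library; frequency after pTyr selection over input frequency; kinase dosed for 20-30% of maximal phosphorylation in three min.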

Going from LNCIFYKDQTG [RS1_Y166_W163C_YF] to KTKLGYSPLHQ [ANK1_Y735], the phosphorylation enrichment falls from 1.44 to 0.354.

First: QNTGVYFDLFG [PTPN11_Y62_D61V_YF]
Second: CKLYQYYLDHL [ATRX_Y1849]
The phosphorylation enrichment of the first is higher: 0.831 for the first, 0.758 for the second.

Going from SDGHEYIFVDP [PDGFRB_Y579_YF] to LHRAHYDLRHT [AHSG_Y314], the phosphorylation enrichment rises from 0.447 to 0.8.

Going from ILGRYYERGSI [PAX5_Y73_T75R] to EKLIQYCQSKG [AKR1B1_Y199], the phosphorylation enrichment falls from 0.474 to 0.425.

Compared with CRAVKYLQMVR [AVPR2_Y117_G122R], YGMQLYQNYMH [GRB14_Y347] is higher in phosphorylation enrichment: 0.455 for the first, 8.99 for the second.

First: PSSNLYFRCLT [CNGA3_Y168_W171C_YF]
Second: KMGNIYRTEYG [MRPL3_Y265]
The phosphorylation enrichment of the first is higher: 0.694 for the first, 0.334 for the second.

First: PLDGEHFTLQI [TP53_Y327_Y327H]
Second: RKKLFYKADGE [SERPINC1_Y272_E269K]
The phosphorylation enrichment of the first is higher: 0.646 for the first, 0.587 for the second.

First: SVTCPYSPALN [TP53_Y126_T125P]
Second: RRIYSYRGHLW [VHL_Y112_H110Y]
The phosphorylation enrichment of the first is lower: 0.656 for the first, 1.02 for the second.

Compared with HLDRSYSFSFS [PEAR1_Y890_R885H_YF], TRSYDYMEGGD [FGF7_Y58] is lower in phosphorylation enrichment: 0.999 for the first, 0.456 for the second.

Compared with KMLEKYKERLN [TLK2_Y259], KEINDYVEKGT [SERPINA1_Y184_Q180E] is higher in phosphorylation enrichment: 0.444 for the first, 0.492 for the second.

Going from TNGFTCGSSHQ [MANEA_Y331_Y331C] to IENKLYGMSDP [RET_Y1062], the phosphorylation enrichment rises from 0.412 to 0.666.

Going from EHTILYSNNST [KANSL1_Y223_T221I] to QCTSHYPEHVC [SART3_Y541_D540H], the phosphorylation enrichment falls from 0.732 to 0.393.

First: YARECYSALPQ [SARS2_Y52_G51C]
Second: ARVANYHRDGP [CAT_Y386_Q387H]
The phosphorylation enrichment of the first is higher: 0.663 for the first, 0.372 for the second.

Compared with GSETPYVDRTP [ESS2_Y335], GSTLSYGRDGR [MATR3_Y158_P154S] is lower in phosphorylation enrichment: 0.409 for the first, 0.374 for the second.

First: KDFTIHNPNLL [VANGL1_Y290_Y290H]
Second: GRQGIYKENER [GPR143_Y231_T232K]
The phosphorylation enrichment of the first is lower: 0.353 for the first, 0.407 for the second.

Compared with IFHLSYLHNCE [PDE6B_Y227_YF], VIVRMYDYHVL [RPF2_Y109_G106V] is higher in phosphorylation enrichment: 0.562 for the first, 4.25 for the second.

Work on PSSNLYYRCLT [CNGA3_Y168_W171C] yielded a phosphorylation enrichment of 0.655.

The sequences below were run against SHP2-C SH2 (assay: SH2 binding enrichment of the phosphorylated peptide, bacterial display (enrichment ratio); higher = better substrate or ligand; peptides without Tyr show the background).

Compared with LNCIFYKDQTG [RS1_Y166_W163C_YF], KTKLGYSPLHQ [ANK1_Y735] is higher in SH2 binding enrichment: 0.659 for the first, 1.05 for the second.

Going from QNTGVYFDLFG [PTPN11_Y62_D61V_YF] to CKLYQYYLDHL [ATRX_Y1849], the SH2 binding enrichment falls from 0.688 to 0.523.

Going from SDGHEYIFVDP [PDGFRB_Y579_YF] to LHRAHYDLRHT [AHSG_Y314], the SH2 binding enrichment rises from 0.544 to 1.6.

Compared with ILGRYYERGSI [PAX5_Y73_T75R], EKLIQYCQSKG [AKR1B1_Y199] is lower in SH2 binding enrichment: 0.671 for the first, 0.466 for the second.

First: CRAVKYLQMVR [AVPR2_Y117_G122R]
Second: YGMQLYQNYMH [GRB14_Y347]
The SH2 binding enrichment of the first is higher: 1.25 for the first, 1.22 for the second.

Compared with PSSNLYFRCLT [CNGA3_Y168_W171C_YF], KMGNIYRTEYG [MRPL3_Y265] is higher in SH2 binding enrichment: 0.636 for the first, 0.73 for the second.

Compared with PLDGEHFTLQI [TP53_Y327_Y327H], RKKLFYKADGE [SERPINC1_Y272_E269K] is lower in SH2 binding enrichment: 2.55 for the first, 0.628 for the second.

First: SVTCPYSPALN [TP53_Y126_T125P]
Second: RRIYSYRGHLW [VHL_Y112_H110Y]
The SH2 binding enrichment of the first is higher: 0.7 for the first, 0.465 for the second.

Going from HLDRSYSFSFS [PEAR1_Y890_R885H_YF] to TRSYDYMEGGD [FGF7_Y58], the SH2 binding enrichment rises from 0.448 to 0.538.

Going from KMLEKYKERLN [TLK2_Y259] to KEINDYVEKGT [SERPINA1_Y184_Q180E], the SH2 binding enrichment falls from 0.641 to 0.568.

First: TNGFTCGSSHQ [MANEA_Y331_Y331C]
Second: IENKLYGMSDP [RET_Y1062]
The SH2 binding enrichment of the first is higher: 0.642 for the first, 0.521 for the second.

Compared with EHTILYSNNST [KANSL1_Y223_T221I], QCTSHYPEHVC [SART3_Y541_D540H] is higher in SH2 binding enrichment: 0.71 for the first, 0.795 for the second.

Compared with YARECYSALPQ [SARS2_Y52_G51C], ARVANYHRDGP [CAT_Y386_Q387H] is higher in SH2 binding enrichment: 0.753 for the first, 0.769 for the second.

Going from GSETPYVDRTP [ESS2_Y335] to GSTLSYGRDGR [MATR3_Y158_P154S], the SH2 binding enrichment falls from 0.719 to 0.642.

Going from KDFTIHNPNLL [VANGL1_Y290_Y290H] to GRQGIYKENER [GPR143_Y231_T232K], the SH2 binding enrichment falls from 0.553 to 0.427.

Going from IFHLSYLHNCE [PDE6B_Y227_YF] to VIVRMYDYHVL [RPF2_Y109_G106V], the SH2 binding enrichment rises from 0.894 to 1.53.

Work on PSSNLYYRCLT [CNGA3_Y168_W171C] yielded an SH2 binding enrichment of 0.629.
